# Earlier results, collected in patent US7662384B2, “Use of anti-α5β1 antibodies to inhibit cancer cell proliferation” (Facet Biotech Corporation, priority 2004, dated 2010).
# Where two headings read alike, the source gives them in different places.
# B1: F200: Fab fragment derived from M200 (antibody, chains of the INN, looked up, V domains shown)
# VH: QVQLKESGPGLVAPSQSLSITCTISGFSLTDYGVHWVRQPPGKGLEWLVVIWSDGSSTYNSALKSRMTIRKDNSKSQVFLIMNSLQTDDSAMYYCARHGTYYGMTTTGDALDYWGQGTSVTVSS
# VL: QIVLTQSPAIMSASLGERVTMTCTASSSVSSNYLHWYQQKPGSAPNLWIYSTSNLASGVPARFSGSGSGTSYSLTISSMEAEDAATYYCHQYLRSPPTFGGGTKLEIK
# modifications: Fab
# notes: Fab fragment derived from M200
# Key:
# angiogenesis [1] = settings: monkey eye model; cited from earlier work
# angiogenesis [2] = settings: rabbit eye model; cited from earlier work
molecule,measurement,setting,value
B1,in vivo anti-angiogenic efficacy,angiogenesis [1],in vivo anti-angiogenic efficacy
same,in vivo anti-angiogenic efficacy,angiogenesis [2],in vivo anti-angiogenic efficacy
